Measurements published in FireProtDB (doi:10.1016/0003-9861(92)90047-z).

Details: Escherichia coli (strain K12); pH 7.2; Thermal; DSC; Sodium phosphate 1 mM; reversible: yes; whole UniProt chain shown

B1: Tryptophan synthase alpha chain wild type, P0A877 (protein)
chain: MERYESLFAQLKERKEGAFVPFVTLGDPGIEQSLKIIDTLIEAGADALELGIPFSDPLADGPTIQNATLRAFAAGVTPAQCFEMLALIRQKHPTIPIGLLMYANLVFNKGIDEFYAQCEKVGVDSVLVADVPVEESAPFRQAALRHNVAPIFICPPNADDDLLRQIASYGRGYTYLLSRAGVTGAENRAALPLNHLVAKLKEYNAAPPLQGFGISAPDQVKAAIDAGAAGAISGSAIVKIIEQHINEPEKMLAALKVFVQPMKAATRS
  Tm: 59.5 °C
